Experimental data taken from article PMC7966745, “Elucidation of transient protein-protein interactions within carrier protein-dependent biosynthesis” (Communications Biology, 2021).

T1: TesA, E. coli thioesterase (E. coli, UniProt P0ADA1 27-208)
T1 construct: TesA thioesterase 1, E. coli; the natural protein is periplasmic; source: E. coli BL21 (DE3), purified (Ni-IMAC, Superdex 75)
T1 sequence: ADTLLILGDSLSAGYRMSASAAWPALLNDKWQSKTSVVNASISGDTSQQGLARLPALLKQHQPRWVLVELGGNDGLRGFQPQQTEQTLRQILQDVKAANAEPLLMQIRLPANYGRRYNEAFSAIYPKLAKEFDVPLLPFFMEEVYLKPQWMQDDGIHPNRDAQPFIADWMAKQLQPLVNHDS

T2: FabF, E. coli elongating ketosynthase (E. coli, UniProt P0AAI5 2-413)
T2 construct: ketosynthase FabF (3-oxoacyl-ACP synthase 2), E. coli; also called KS; source: E. coli BL21 (DE3), purified (Ni-IMAC, Superdex 75)
T2 sequence: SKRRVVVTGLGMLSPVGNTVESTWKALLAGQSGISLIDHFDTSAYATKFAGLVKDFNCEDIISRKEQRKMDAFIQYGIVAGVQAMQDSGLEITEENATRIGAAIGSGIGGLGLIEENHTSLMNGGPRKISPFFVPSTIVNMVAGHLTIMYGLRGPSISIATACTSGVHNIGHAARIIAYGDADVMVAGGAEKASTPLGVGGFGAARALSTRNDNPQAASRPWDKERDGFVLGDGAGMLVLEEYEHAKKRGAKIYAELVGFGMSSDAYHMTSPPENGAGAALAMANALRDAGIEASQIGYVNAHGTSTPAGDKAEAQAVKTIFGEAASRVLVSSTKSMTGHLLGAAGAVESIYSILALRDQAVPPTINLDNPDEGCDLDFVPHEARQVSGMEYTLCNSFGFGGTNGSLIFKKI

T3: TesA, E. coli thioesterase (E. coli, UniProt P0ADA1 27-208)
T3 construct: thioesterase TesA (thioesterase 1), E. coli; source: E. coli BL21 (DE3), purified (Ni-IMAC, Superdex 75)
T3 sequence: T1 sequence

B1: FabI, enoylreductase of E. coli fatty acid biosynthesis (enzyme)
chain: MGFLSGKRILVTGVASKLSIAYGIAQAMHREGAELAFTYQNDKLKGRVEEFAAQLGSDIVLQCDVAEDASIDTMFAELGKVWPKFDGFVHSIGFAPGDQLDGDYVNAVTREGFKIAHDISSYSFVAMAKACRSMLNPGSALLTLSYLGAERAIPNYNVMGLAKASLEANVRYMANAMGPEGVRVNAISAGPIRTLAASGIKDFRKMLAHCEAVTPIRRTVTIEDVGNSAAFLCSDLSAGISGEVVHVDGGFSIAAMNELELK
notes: FabI enoyl-ACP reductase, E. coli; titrated with 0.5 mM NAD+ in the buffer; also called ER; source: E. coli BL21 (DE3), purified (Ni-IMAC, Superdex 75)
B2: FabI, E. coli enoylreductase (enzyme)
chain: B1 chain
notes: enoylreductase FabI (enoyl-ACP reductase [NADH]), E. coli; Titrated with 0.5 mM NAD+ present; also called ER; source: E. coli BL21 (DE3), purified (Ni-IMAC, Superdex 75)
B3: octanoyl-AcpP (15N-C8-AcpP), E. coli acyl carrier protein (natural protein)
chain: STIEERVKKIIGEQLGVKQEEVTNNASFVEDLGADSLDTVELVMALEEEFDTEIPDEEAEKITTVQAAIDYINGHQA
modifications: octanoyl pantethenamide probe loaded as a 4'-phosphopantetheine analog (amide linked octanoyl) on S36; uniformly 15N labeled and perdeuterated
notes: Acyl carrier protein AcpP of E. coli; Grown on a His-tagged pET-22b vector; also called amide linked octanoyl AcpP; source: E. coli BL21 (DE3), M9 minimal media with 15N NH4Cl and D2O, purified; made apo with ACPH, then loaded with an octanoyl pantethenamide probe (CoaA, CoaD, CoaE, Sfp)
B4: octanoyl-AcpP (C8-AcpP), E. coli acyl carrier protein (natural protein)
chain: B3 chain
modifications: octanoyl pantethenamide probe loaded (stable C8 acyl analog); uniformly 15N labeled and perdeuterated
notes: acyl carrier protein AcpP, E. coli; PDB 2FAD is heptanoyl-AcpP, used for docking only; also called 15N-C8-AcpP; source: E. coli BL21 (DE3), M9 minimal media with 15N NH4Cl and D2O, purified; made apo with P. aeruginosa ACPH, then loaded with CoaA, CoaD, CoaE and Sfp
B5: FabF, elongating ketosynthase of E. coli fatty acid biosynthesis (enzyme)
chain: T2 sequence
notes: FabF ketosynthase (3-oxoacyl-ACP synthase 2), E. coli; also called KS; source: E. coli BL21 (DE3), purified (Ni-IMAC, Superdex 75)
B6: FabG, ketoreductase of E. coli fatty acid biosynthesis (enzyme)
chain: MNFEGKIALVTGASRGIGRAIAETLAARGAKVIGTATSENGAQAISDYLGANGKGLMLNVTDPASIESVLEKIRAEFGEVDILVNNAGITRDNLLMRMKDEEWNDIIETNLSSVFRLSKAVMRAMMKKRHGRIITIGSVVGTMGNGGQANYAAAKAGLIGFSKSLAREVASRGITVNVVAPGFIETDMTRALSDDQRAGILAQVPAGRLGGAQEIANAVAFLASDEAAYITGETLHVNGGMYMV
notes: FabG 3-oxoacyl-ACP reductase, E. coli; titrated with 0.5 mM NAD+ in the buffer; also called KR; source: E. coli BL21 (DE3), purified (Ni-IMAC, Superdex 75)
B7: FabG, E. coli ketoreductase (enzyme)
chain: B6 chain
notes: ketoreductase FabG (3-oxoacyl-ACP reductase), E. coli; Titrated with 0.5 mM NAD+ present; also called KR; source: E. coli BL21 (DE3), purified (Ni-IMAC, Superdex 75)

Key:
FabB (Escherichia coli) = FabB (Escherichia coli) (UniProt P0A953); assay: NMR titration (TITAN); conditions: cited from earlier work
[1] = target: B3; assay: NMR titration; 1H-15N HSQC of perdeuterated 15N-C8-AcpP with increasing unlabeled partner protein, five points; TITAN 2D lineshape analysis, flexible stoichiometry model, error from 300 bootstrap steps; 37 °C, 10 mM potassium phosphate pH 7.4, 0.5 mM TCEP, 0.5 mM NAD+, 0.1% NaN3; conditions: both partners purified
[2] = target: B4; assay: NMR titration; 1H-15N HSQC of 15N, perdeuterated C8-AcpP titrated with unlabeled partner, at least five points; 37 °C; 10 mM potassium phosphate pH 7.4, 0.5 mM TCEP, 0.5 mM NAD+, 0.1% NaN3; TITAN 2D lineshape analysis, flexible stoichiometry model; conditions: both partners purified
[3] = target: T1, TesA, E. coli thioesterase; assay: NMR titration; 1H-15N HSQC of perdeuterated 15N-C8-AcpP with increasing unlabeled partner protein, five points; TITAN 2D lineshape analysis, flexible stoichiometry model, error from 300 bootstrap steps; 37 °C, 10 mM potassium phosphate pH 7.4, 0.5 mM TCEP, 0.1% NaN3; conditions: both partners purified
[4] = target: B5; assay: as above; conditions: both partners purified
[5] = target: B1; assay: NMR titration; 1H-15N HSQC of perdeuterated 15N-C8-AcpP with increasing unlabeled partner protein, five points; TITAN 2D lineshape analysis, flexible stoichiometry model, error from 300 bootstrap steps; 37 °C, 10 mM potassium phosphate pH 7.4, 0.5 mM TCEP, 0.5 mM NAD+, 0.1% NaN3; conditions: both partners purified
[6] = target: T2, FabF, E. coli elongating ketosynthase; assay: NMR titration; 1H-15N HSQC of 15N, perdeuterated C8-AcpP titrated with unlabeled partner, at least five points; 37 °C; 10 mM potassium phosphate pH 7.4, 0.5 mM TCEP, 0.1% NaN3; TITAN 2D lineshape analysis, flexible stoichiometry model; conditions: both partners purified
[7] = target: T3, TesA, E. coli thioesterase; assay: as above; conditions: both partners purified
[8] = target: B2; assay: NMR titration; 1H-15N HSQC of 15N, perdeuterated C8-AcpP titrated with unlabeled partner, at least five points; 37 °C; 10 mM potassium phosphate pH 7.4, 0.5 mM TCEP, 0.5 mM NAD+, 0.1% NaN3; TITAN 2D lineshape analysis, flexible stoichiometry model; conditions: both partners purified
[9] = target: B7; assay: as above; conditions: both partners purified
[10] = target: B3; assay: NMR titration; 1H-15N HSQC of perdeuterated 15N-C8-AcpP with increasing unlabeled partner protein, five points; TITAN 2D lineshape analysis, flexible stoichiometry model, error from 300 bootstrap steps; 37 °C, 10 mM potassium phosphate pH 7.4, 0.5 mM TCEP, 0.1% NaN3; conditions: both partners purified

Chain of FabB (Escherichia coli) (P0A953 whole entry): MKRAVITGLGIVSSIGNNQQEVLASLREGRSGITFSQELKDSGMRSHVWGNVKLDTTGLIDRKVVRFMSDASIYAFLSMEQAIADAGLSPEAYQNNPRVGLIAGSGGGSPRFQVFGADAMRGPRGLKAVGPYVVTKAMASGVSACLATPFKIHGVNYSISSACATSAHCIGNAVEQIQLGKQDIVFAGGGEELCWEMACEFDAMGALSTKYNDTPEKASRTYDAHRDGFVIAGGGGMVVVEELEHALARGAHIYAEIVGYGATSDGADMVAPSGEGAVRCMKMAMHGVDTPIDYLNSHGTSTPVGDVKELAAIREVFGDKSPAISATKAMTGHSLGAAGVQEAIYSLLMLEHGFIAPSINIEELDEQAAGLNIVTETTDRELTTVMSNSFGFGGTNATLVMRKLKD

With AcpP (from UniProt P0A6A8) as the molecule, how does the Kd (FabB (Escherichia coli)) read?
The Kd was 37.6 µM.

With B1 as the molecule, how does the “stoichiometry N” value [1] read?
The value was 1.2.

For B2, which “stoichiometry N” value [2] is on record?
Its value is ~1.

Which Kd [3] does the source give for B3 here?
Its Kd is 13 µM.

What about the koff [3] of the same molecule?
The koff was 9750 s⁻¹.

What about the Kd [4] of the same molecule?
Its Kd is 6.9 µM.

What about the koff [4] of the same molecule?
Its koff is 3350 s⁻¹.

What about the Kd [5] of the same molecule?
The Kd was 1.6 µM.

And the koff [5]?
The koff was 6360 s⁻¹.

For B4, which Kd [6] is on record?
The Kd was 8.3 µM.

What about the koff [6] of the same molecule?
The koff was 3510 s⁻¹.

What about the Kd [7] of the same molecule?
Its Kd is 12.5 µM.

And the koff [7]?
Its koff is 9720 s⁻¹.

What about the Kd [8] of the same molecule?
The Kd was 1.7 µM.

And the koff [8]?
Its koff is 8500 s⁻¹.

And the Kd [9]?
The Kd was 52.3 µM.

And the koff [9]?
The koff was 3560 s⁻¹.

For B5, which “stoichiometry N” value [10] is on record?
Its value is 1.3.

Which “stoichiometry N” value [1] does the source give for B6 here?
Its value is 2.2.

Which “stoichiometry N” value [2] does the source give for B7 here?
Its value is 2.
